{"source": "paper PMC3985883", "about": "(Biochemistry, 2014)", "key": {"[1]": {"target": "class Ia RNR small subunit (Homo sapiens) (UniProt P31350)", "sequence (P31350 whole entry)": "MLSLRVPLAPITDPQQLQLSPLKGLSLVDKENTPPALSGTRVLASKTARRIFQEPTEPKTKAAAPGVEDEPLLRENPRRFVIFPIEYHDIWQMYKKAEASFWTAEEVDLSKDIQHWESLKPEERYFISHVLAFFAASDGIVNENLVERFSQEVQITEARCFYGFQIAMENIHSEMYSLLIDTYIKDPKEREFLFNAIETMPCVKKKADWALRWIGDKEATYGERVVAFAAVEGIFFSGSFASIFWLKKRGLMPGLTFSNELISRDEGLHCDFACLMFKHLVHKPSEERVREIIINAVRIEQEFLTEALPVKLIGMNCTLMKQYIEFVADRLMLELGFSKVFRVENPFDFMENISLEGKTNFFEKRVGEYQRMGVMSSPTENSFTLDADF", "details": "cited from earlier work"}, "[2]": {"target": "class Ia RNR small subunit (Escherichia coli) (UniProt P69924)", "sequence (P69924 2-376)": "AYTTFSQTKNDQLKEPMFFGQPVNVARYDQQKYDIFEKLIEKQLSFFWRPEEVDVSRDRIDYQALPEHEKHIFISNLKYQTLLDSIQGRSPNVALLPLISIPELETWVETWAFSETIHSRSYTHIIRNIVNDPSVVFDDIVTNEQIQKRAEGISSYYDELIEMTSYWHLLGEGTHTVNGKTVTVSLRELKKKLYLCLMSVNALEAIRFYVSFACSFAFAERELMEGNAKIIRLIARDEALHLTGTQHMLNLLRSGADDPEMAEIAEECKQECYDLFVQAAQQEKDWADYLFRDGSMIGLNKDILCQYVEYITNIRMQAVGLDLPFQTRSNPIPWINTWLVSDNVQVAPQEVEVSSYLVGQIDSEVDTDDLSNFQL", "details": "cited from earlier work"}, "SEC": {"target": "the molecule itself", "assay": "SEC"}, "[3]": {"target": "T1, Bacillus subtilis class Ib ribonucleotide reductase NrdE (α subunit) (Bacillus subtilis, UniProt P50620 1-700)", "T1 sequence (looked up)": "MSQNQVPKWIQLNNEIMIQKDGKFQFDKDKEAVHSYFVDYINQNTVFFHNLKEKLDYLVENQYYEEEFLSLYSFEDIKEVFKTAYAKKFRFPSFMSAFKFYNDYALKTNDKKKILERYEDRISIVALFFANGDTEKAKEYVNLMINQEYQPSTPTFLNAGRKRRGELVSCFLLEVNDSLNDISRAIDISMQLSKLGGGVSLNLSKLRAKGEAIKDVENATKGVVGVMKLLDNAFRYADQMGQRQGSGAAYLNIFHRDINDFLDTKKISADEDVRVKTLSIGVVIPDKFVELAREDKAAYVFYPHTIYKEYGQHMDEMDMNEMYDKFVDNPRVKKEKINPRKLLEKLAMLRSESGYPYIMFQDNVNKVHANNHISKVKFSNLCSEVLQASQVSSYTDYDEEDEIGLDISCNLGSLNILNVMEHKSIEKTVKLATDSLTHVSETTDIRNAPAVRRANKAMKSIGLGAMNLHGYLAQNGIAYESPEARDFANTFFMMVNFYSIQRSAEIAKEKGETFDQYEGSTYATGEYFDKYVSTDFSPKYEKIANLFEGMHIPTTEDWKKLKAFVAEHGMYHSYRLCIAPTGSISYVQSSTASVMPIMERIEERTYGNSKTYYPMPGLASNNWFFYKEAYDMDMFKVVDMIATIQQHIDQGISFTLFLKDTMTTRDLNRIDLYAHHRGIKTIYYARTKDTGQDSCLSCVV", "assay": "SEC"}, "AUC": {"target": "the molecule itself", "assay": "AUC"}}, "data": [{"molecule": "class Ia RNR large subunit (from UniProt P23921)", "values": [{"measurement": "Kd", "setting": "[1]", "result": 200, "unit": "nM"}]}, {"molecule": "class Ia RNR large subunit (from UniProt P00452)", "values": [{"measurement": "Kd", "setting": "[2]", "result": 200, "unit": "nM"}]}, {"molecule": "Bacillus subtilis holo-Fe^III2-Y· NrdF (β subunit, diferric-tyrosyl radical cofactor) (enzyme, UniProt P50621 1-329, looked up, tyrosyl radical (about 1 Y· per β2); Fe^III2 cofactor (about 4 Fe per β2)) MTKIYDAANWSKHEDDFTQMFYNQNVKQFWLPEEIALNGDLLTWKYLGKNEQDTYMKVLAGLTLLDTEQGNTGMPIVAEHVDGHQRKAVLNFMAMMENAVHAKSYSNIFMTLAPTETINEVFEWVKQNKYLQKKAQMIVGLYKAIQKDDEISLFKAMVASVYLESFLFYSGFYYPLYFYGQGKLMQSGEIINLILRDEAIHGVYVGLLAQEIYNKQTEEKKAELREFAIDLLNQLYENELEYTEDLYDQVGLSHDVKKFIRYNANKALMNLGFDPYFEEEDINPIVLNGLNTKTKSHDFFSMKGNGYKKATVEPLKDDDFYFEDEKEQI", "values": [{"measurement": "stoichiometry N", "setting": "SEC", "result": 2}, {"measurement": "binding result", "setting": "[3]", "result": "binds"}]}, {"molecule": "Bacillus subtilis holo-Mn^III2-Y· NrdF (β subunit, dimanganic-tyrosyl radical cofactor) (enzyme, UniProt P50621 1-329, looked up, tyrosyl radical (about 1 Y· per β2); Mn^III2 cofactor (about 4 Mn per β2)) MTKIYDAANWSKHEDDFTQMFYNQNVKQFWLPEEIALNGDLLTWKYLGKNEQDTYMKVLAGLTLLDTEQGNTGMPIVAEHVDGHQRKAVLNFMAMMENAVHAKSYSNIFMTLAPTETINEVFEWVKQNKYLQKKAQMIVGLYKAIQKDDEISLFKAMVASVYLESFLFYSGFYYPLYFYGQGKLMQSGEIINLILRDEAIHGVYVGLLAQEIYNKQTEEKKAELREFAIDLLNQLYENELEYTEDLYDQVGLSHDVKKFIRYNANKALMNLGFDPYFEEEDINPIVLNGLNTKTKSHDFFSMKGNGYKKATVEPLKDDDFYFEDEKEQI", "values": [{"measurement": "stoichiometry N", "setting": "AUC", "result": 2}, {"measurement": "binding result", "setting": "[3]", "result": "binds"}]}]}
